The results in this text go back to US20200270588A1, “GLUCOSYL TRANSFERASE POLYPEPTIDES AND METHODS OF USE” (Syngenta Participations AG, priority 2017, published 2020).

B1: V370A: bx9 SEQ ID NO:1 mutant (protein)
chain: MASSRTGAGAGGRVVVFPFPFQGHFNPVMRLARALHARGLAITVFHSGALDPADYPADYRFVPVTVEADPKLLASEDIAAIVTTLNASCDAPFRARLSALLAAEGRDSVRCVFTDVSWNAVLTASSDLGVPALGMMTASAASLRDYMAYRTLIDKGYLPVKEERKEDPVPELPPYLVKDLLRVDTSDLEEFAELLARTVTAARRASGLIFNTFPLIETDTLAEIHKALSVPVFAVAPLNKLVPTATASLHGVVQADRGCLQWLDTQQPGSVLYVSFGSMAAMDPHEFVELAWGLADSKRPFVWVVRPNLIRGFESGALPDGVEDEVRGRGIVVAWAPQEEVLAHPAVGGFLTHNGWNSTVEAISEGVPMACCPRHGDQFGNMRYVCDVWKVGTELVGEQLERGQVKAAIDRLFGTKEGEEIKERMKEFKIAAAKGIGIGVDVDETASPRTDLTDLVDLIKSF
modifications: Zea mays
B2: Q22P: bx9 SEQ ID NO:1 mutant (protein)
chain: MASSRTGAGAGGRVVVFPFPFPGHFNPVMRLARALHARGLAITVFHSGALDPADYPADYRFVPVTVEADPKLLASEDIAAIVTTLNASCDAPFRARLSALLAAEGRDSVRCVFTDVSWNAVLTASSDLGVPALGMMTASAASLRDYMAYRTLIDKGYLPVKEERKEDPVPELPPYLVKDLLRVDTSDLEEFAELLARTVTAARRASGLIFNTFPLIETDTLAEIHKALSVPVFAVAPLNKLVPTATASLHGVVQADRGCLQWLDTQQPGSVLYVSFGSMAAMDPHEFVELAWGLADSKRPFVWVVRPNLIRGFESGALPDGVEDEVRGRGIVVAWAPQEEVLAHPAVGGFLTHNGWNSTVEAISEGVPMVCCPRHGDQFGNMRYVCDVWKVGTELVGEQLERGQVKAAIDRLFGTKEGEEIKERMKEFKIAAAKGIGIGVDVDETASPRTDLTDLVDLIKSF
modifications: Zea mays
B3: Q22H: bx9 SEQ ID NO:1 mutant (protein)
chain: MASSRTGAGAGGRVVVFPFPFHGHFNPVMRLARALHARGLAITVFHSGALDPADYPADYRFVPVTVEADPKLLASEDIAAIVTTLNASCDAPFRARLSALLAAEGRDSVRCVFTDVSWNAVLTASSDLGVPALGMMTASAASLRDYMAYRTLIDKGYLPVKEERKEDPVPELPPYLVKDLLRVDTSDLEEFAELLARTVTAARRASGLIFNTFPLIETDTLAEIHKALSVPVFAVAPLNKLVPTATASLHGVVQADRGCLQWLDTQQPGSVLYVSFGSMAAMDPHEFVELAWGLADSKRPFVWVVRPNLIRGFESGALPDGVEDEVRGRGIVVAWAPQEEVLAHPAVGGFLTHNGWNSTVEAISEGVPMVCCPRHGDQFGNMRYVCDVWKVGTELVGEQLERGQVKAAIDRLFGTKEGEEIKERMKEFKIAAAKGIGIGVDVDETASPRTDLTDLVDLIKSF
modifications: Zea mays
B4: F21Y: bx9 SEQ ID NO:1 mutant (protein)
chain: MASSRTGAGAGGRVVVFPFPYQGHFNPVMRLARALHARGLAITVFHSGALDPADYPADYRFVPVTVEADPKLLASEDIAAIVTTLNASCDAPFRARLSALLAAEGRDSVRCVFTDVSWNAVLTASSDLGVPALGMMTASAASLRDYMAYRTLIDKGYLPVKEERKEDPVPELPPYLVKDLLRVDTSDLEEFAELLARTVTAARRASGLIFNTFPLIETDTLAEIHKALSVPVFAVAPLNKLVPTATASLHGVVQADRGCLQWLDTQQPGSVLYVSFGSMAAMDPHEFVELAWGLADSKRPFVWVVRPNLIRGFESGALPDGVEDEVRGRGIVVAWAPQEEVLAHPAVGGFLTHNGWNSTVEAISEGVPMVCCPRHGDQFGNMRYVCDVWKVGTELVGEQLERGQVKAAIDRLFGTKEGEEIKERMKEFKIAAAKGIGIGVDVDETASPRTDLTDLVDLIKSF
modifications: Zea mays
B5: C372I: bx9 SEQ ID NO:1 mutant (protein)
chain: MASSRTGAGAGGRVVVFPFPFQGHFNPVMRLARALHARGLAITVFHSGALDPADYPADYRFVPVTVEADPKLLASEDIAAIVTTLNASCDAPFRARLSALLAAEGRDSVRCVFTDVSWNAVLTASSDLGVPALGMMTASAASLRDYMAYRTLIDKGYLPVKEERKEDPVPELPPYLVKDLLRVDTSDLEEFAELLARTVTAARRASGLIFNTFPLIETDTLAEIHKALSVPVFAVAPLNKLVPTATASLHGVVQADRGCLQWLDTQQPGSVLYVSFGSMAAMDPHEFVELAWGLADSKRPFVWVVRPNLIRGFESGALPDGVEDEVRGRGIVVAWAPQEEVLAHPAVGGFLTHNGWNSTVEAISEGVPMVCIPRHGDQFGNMRYVCDVWKVGTELVGEQLERGQVKAAIDRLFGTKEGEEIKERMKEFKIAAAKGIGIGVDVDETASPRTDLTDLVDLIKSF
modifications: Zea mays
B6: Q22M: bx9 SEQ ID NO:1 mutant (protein)
chain: MASSRTGAGAGGRVVVFPFPFMGHFNPVMRLARALHARGLAITVFHSGALDPADYPADYRFVPVTVEADPKLLASEDIAAIVTTLNASCDAPFRARLSALLAAEGRDSVRCVFTDVSWNAVLTASSDLGVPALGMMTASAASLRDYMAYRTLIDKGYLPVKEERKEDPVPELPPYLVKDLLRVDTSDLEEFAELLARTVTAARRASGLIFNTFPLIETDTLAEIHKALSVPVFAVAPLNKLVPTATASLHGVVQADRGCLQWLDTQQPGSVLYVSFGSMAAMDPHEFVELAWGLADSKRPFVWVVRPNLIRGFESGALPDGVEDEVRGRGIVVAWAPQEEVLAHPAVGGFLTHNGWNSTVEAISEGVPMVCCPRHGDQFGNMRYVCDVWKVGTELVGEQLERGQVKAAIDRLFGTKEGEEIKERMKEFKIAAAKGIGIGVDVDETASPRTDLTDLVDLIKSF
modifications: Zea mays
B7: G376C: bx9 SEQ ID NO:1 mutant (protein)
chain: MASSRTGAGAGGRVVVFPFPFQGHFNPVMRLARALHARGLAITVFHSGALDPADYPADYRFVPVTVEADPKLLASEDIAAIVTTLNASCDAPFRARLSALLAAEGRDSVRCVFTDVSWNAVLTASSDLGVPALGMMTASAASLRDYMAYRTLIDKGYLPVKEERKEDPVPELPPYLVKDLLRVDTSDLEEFAELLARTVTAARRASGLIFNTFPLIETDTLAEIHKALSVPVFAVAPLNKLVPTATASLHGVVQADRGCLQWLDTQQPGSVLYVSFGSMAAMDPHEFVELAWGLADSKRPFVWVVRPNLIRGFESGALPDGVEDEVRGRGIVVAWAPQEEVLAHPAVGGFLTHNGWNSTVEAISEGVPMVCCPRHCDQFGNMRYVCDVWKVGTELVGEQLERGQVKAAIDRLFGTKEGEEIKERMKEFKIAAAKGIGIGVDVDETASPRTDLTDLVDLIKSF
modifications: Zea mays
B8: V370I: bx9 SEQ ID NO:1 mutant (protein)
chain: MASSRTGAGAGGRVVVFPFPFQGHFNPVMRLARALHARGLAITVFHSGALDPADYPADYRFVPVTVEADPKLLASEDIAAIVTTLNASCDAPFRARLSALLAAEGRDSVRCVFTDVSWNAVLTASSDLGVPALGMMTASAASLRDYMAYRTLIDKGYLPVKEERKEDPVPELPPYLVKDLLRVDTSDLEEFAELLARTVTAARRASGLIFNTFPLIETDTLAEIHKALSVPVFAVAPLNKLVPTATASLHGVVQADRGCLQWLDTQQPGSVLYVSFGSMAAMDPHEFVELAWGLADSKRPFVWVVRPNLIRGFESGALPDGVEDEVRGRGIVVAWAPQEEVLAHPAVGGFLTHNGWNSTVEAISEGVPMICCPRHGDQFGNMRYVCDVWKVGTELVGEQLERGQVKAAIDRLFGTKEGEEIKERMKEFKIAAAKGIGIGVDVDETASPRTDLTDLVDLIKSF
modifications: Zea mays

The assay is described as follows: UDP luminescence plate assay of E. coli extracts, saturation mutants of SEQ ID NO: 1, herbicide V. In kind it is biochemical, Zea mays. The note with it: improvement factor relative to w/t bx9 = 1.0, rounded to nearest 0.5; extract activity basis; compound V. The protocol:
Competent BL21 (DE3) cells are transformed as in the foregoing examples and, following seed culturing, grown and autoinduced in plates in a 0.5-1 ml volume of autoinduction medium containing 50 ug/ml kanamycin. Plates are incubated at 37° C. and shaken at 900 rpm. Growth is monitored by taking 20 ul aliquots, diluting 10 fold into flat-bottomed 96 well microtiter plates and reading OD600n at t=0, 1, 2, 2½ and 3 hours if necessary. At a (corrected) OD600 nm˜0.2, plates are transferred to 20° C. and shaken overnight at 900 rpm in a Jencons VWR plate incubator. After ˜18-20 h the final OD600 readings are recorded and the plates centrifuged at 4600 rpm (bench top centrifuge) for 10 min at 4° C. The supernatant is discarded and the pellets then washed with 0.25 ml PBS by repeat centrifugation and removal of supernatant before freezing cell pellets at −80° C. To prepare extracts, plates are allowed to thaw for 30 min and then pellets are resuspended in 0.25 ml of a suitable lysis buffer (for example—50 mM Tris HCL buffer at pH 8.0, 5% glycerol containing 50 mM NaCl and lysonase) mixed, incubated at room temperature for a sufficient time for lysis to be near complete and then centrifuged to remove cell debris and 100 ul of supernatant extract removed to a 96 well V-shaped well plate and stored on ice prior to assay.
Optionally plate assays are stopped with brief heating to 95 C before returning to ice and addition of UDP-Glo detection reagent followed by incubation at lab temperature. […] In addition a UDP standard curve is run alongside each set of plate tests.
Making use of the ELISA assay it is then possible to calculate a specific activity (e.g. in Relative Luminescence Units (RLU)/min/ug bx protein) based upon the amount of each mutant bx9 polypeptide expressed in each well. […] The specific activity of the various test mutant extracts on the same plate are then expressed as a fraction of the specific activity of the w/t bx9 and thus the ‘improvement factor’ versus the w/t expressed as a decimal where, for example, ‘0.5’ means half the specific activity of the wild type and 2.0 means twice the specific activity of the wild type. However, as will be readily apparent to the skilled man, particularly in cases where the UDP assay signal was low (with poor signal to noise versus the background) and/or the ELISA measurement of bx protein also low such a method is prone to generate spurious high specific activity numbers and uncertain numbers.
For B1, the “Preferred amino acid substitutions and (IF) based on RLU/min/ul” value was “A,I(1.5)”.

Turning to B2, the “Preferred amino acid substitutions and (IF) based on RLU/min/ul” value is listed as “H,P,M(1.0)”. Same read-out and setting: under B3 stands “H,P,M(1.0)”. Regarding B4, the “Most Preferred amino acid substitutions and (IF) based on RLU/min/ul” value was “Y(2.0)”. Regarding B5, the “Preferred amino acid substitutions and (IF) based on RLU/min/ul” value is recorded as “I(1.0)”. Take B6: the “Preferred amino acid substitutions and (IF) based on RLU/min/ul” value is recorded as “H,P,M(1.0)”. On the same count and under the same terms, under B7 stands “C,M(1.0)”; under B8, “A,I(1.5)”.
